Tests used:
pErk1/2 and pAkt = experiment: Western blot of pErk1/2 and pAkt in PC12 cell lysates; assay type: cell-based; conditions: 24 hours
Procedure: In biochemical experiments, PC12 and HEK293 cells were lysed for 20 minutes on ice in lysis buffer as described by (Ceni et al., 2010). Briefly, the lysis buffer contained 10 mM Tris-HCl, 150 mM NaCl, 2 mM EDTA, 1% (v/v) NP-40, 1% (v/v) TX-100, 10% Glycerol, 1 mM PMSF, 1 mM Sodium Orthovanadate, 1 μM BB94, 1% (v/v) Roche protease inhibitor cocktail and pH 8.0 (Ceni et al., 2010).
(§1) Immunoprecipitation was performed by the addition of 75 μl (1:2) protein-G sepharose: PBS and incubation end-over-end for 16 hours at 4° C. The immunoprecipitate was washed 4 times with 1 ml of PBS then eluted in 60 μl 2×LDS sample buffer. For immunoblotting, samples were boiled for 5 minutes, separated by SDS-PAGE and transferred onto nitrocellulose membranes, then western blotted using standard protocols (see Example 1 for antibodies used).
The observed functional effects on neurite outgrowth and survival were next correlated with enhanced activation of signal transduction pathways that mediate the trophic effects of TrkA. Lysates of cells treated for 24 hours with NGF alone or in combination with c29 or scrambled peptide were immunoblotted for pErk1/2 (neurite outgrowth), and the serine/threonine protein kinase Akt (survival). […] Total levels of Erk1/2 or Akt were unaffected by any treatment (FIG. 6 A, B).

TrkA = experiment: Biotinylated peptide pull down of TrkA; assay type: binding; conditions: lysate of transfected HEK293 cells, FIG. 4D
Procedure: For peptide pull down assays, the biotinylated c29 or LC1 control peptides were incubated with protein A-sepharose beads or Dynabeads MyOne Streptavidin T1 (Invitrogen) overnight at 4° C. Cell lysates were then added to the peptide-protein A-sepharose complex or Dynabeads MyOne Streptavidin T1 and incubated for 3 hours at 4° C. Peptide-receptor complexes were washed extensively with RIPA lysis buffer and eluted by boiling in Laemmli sample buffer. For p75^NTR construct immunoprecipitations, HEK293 cells were treated with NGF at 50 ng/ml for 10 minutes 48 hours after transfection with 1 μg DNA per well. Cells were immediately harvested in ice-cold phosphate buffered saline (PBS) and washed twice, then lysed in 1 ml of lysis buffer. Cell lysates were pre-cleared in 75 μl (1:2) protein-G sepharose: PBS by rotation end-over-end for 2 hours at 4′C. Lysates were then incubated with 3-5 μg antibody, either mouse-anti-YFP/GFP (Roche) or rabbit-anti-human p75^NTR intracellular domain antibody (Promega), and rotated end-over-end for 2 hours at 4° C.
as §1
The c29 peptide was labelled with biotin and attached to a sepharose bead column. Lysates from cells was passed over the column followed by several wash steps. The proteins that bound to the c29 peptide (proteins that are pulled down) were eluted from the column with SDS buffer and separated in size by SDS-PAGE electrophoresis. The gel was Western blotted and the membrane probed with antibodies to proteins of interest.

TrkAK538A = target: T1, TrkAK538A (Homo sapiens, UniProt P04629, K544A); experiment: NGF-FITC binding by flow cytometry, TrkAK538A-transfected HEK293 cells
T1 construct: expressed in transfected cells; host or cells: HEK293
Procedure: The NGF was conjugated to FITC by standard methods and detailed flow cytometry acquisition and analysis. For NGF-FITC conjugation 400 μg βNGF in 200 μl pH 8.5 NaHCO3 buffer was mixed with 5-10 μl of 10 mg/ml FITC in 100 μl DMSO for 10 hours at 4° C. on an orbital shaker set to 100 rpm. The excess FITC was removed by dialysis against 3 changes of 5 L of 10 mM Tris, 150 mM NaCl, 0.2% acetic acid, pH 8.2 for 24 hours at 4° C. Conjugate F/P characterization was determined by measuring absorbance at 280 nm and 495 nm according to manufacturer's instructions. Biological activity of the NGF-FITC conjugate was tested by performing PC12 cell neurite outgrowth assays unlabelled NGF, and comparing the levels of neuritogenesis. NGF-FITC conjugates were used within 4 weeks of synthesis.
For the flow cytometry NGF binding assays, fluorescence cell parameters of at least 20,000 events for PC12 cells and 100,000 events for HEK293 cells were acquired by flow cytometry list mode and measurements were performed on a single cell basis (with compensation for double event counting). Dead cells and debris were gated out of the analysis on the basis of forward scatter fluorescence, and mean, median and maximal fluorescence values of the gated cell populations were analysed using FACS Diva Software (Becton-Dickinson Biosciences) and FACS Express Software (Becton-Dickinson Biosciences).
(§2) Background fluorescence of HEK293 cells was non-transfected cells (±c29 or scrambled peptide treatment) treated with 26 nM NGF-FITC. For PC12 cells, the control population was cells that had not been treated with NGF-FITC. Analysis of real-time NGF-FITC receptor binding experiments was performed on 550,000-600,000 cells at 4° C. in serum free NB medium and binding kinetics were calculated from raw data files compressed to 50,000 binding events using FlowJo and MatLab Software. Data was plotted with the use of GraphPad Prism.
(§3) Only NGF-FITC preparations that promoted equivalent neurite outgrowth of PC12 cells to that of unlabelled NGF were used in binding experiments. To investigate NGF binding, PC12 or transfected HEK293 cells were serum starved for 4 hours, harvested, washed with Dulbecco's Modified Eagle Medium (DMEM), and counted. When used, c29 or scrambled peptide were added to cultures for the third hour of the serum starvation procedure. 1×10^7 cells/ml suspended in 500 μl of serum-free DMEM were incubated with 26 nM NGF-FITC on ice for 60 minutes before analysis. For binding competition assays, following 1 hour in NGF-FITC, cells were washed with ice-cold PBS containing 0.1% normal bovine serum and incubated on ice with unlabeled NGF at concentrations ranging from 100 pM to 10 μM for 30 minutes, then washed twice in PBS before being analysed on a BD Flow Cytometer FACS Scan (Becton-Dickinson).
To determine association rates, cells were harvested as above following serum starvation and peptide treatment, and were resuspended in 3 ml of serum-free Neurobasal (NB) medium containing […] (Invitrogen) and […] nonessential amino acids, prior to analysis on the flow cytometer. Cells were analysed for 30 seconds prior to the addition of 26 nM NGF-FITC, and then for 30 minutes in real time with an analysis rate of 200-300 events/sec.

HEK293 cells = experiment: NGF-FITC binding by flow cytometry, non-transfected HEK293 cells
Procedure: as §2
as §3, with “1×10^7 cells/ml suspended in 500 μl of serum-free DMEM were incubated with 26 nM NGF-FITC on ice for 60 minutes before analysis.” left out

[1] = 10 ng/ml NGF, relative to 10 ng/ml NGF and scrambled peptide
[2] = 26 nM NGF-FITC 60 minutes, + c29 c.f. TrkAK538A alone

T1 sequence (P04629 33-796 K544A): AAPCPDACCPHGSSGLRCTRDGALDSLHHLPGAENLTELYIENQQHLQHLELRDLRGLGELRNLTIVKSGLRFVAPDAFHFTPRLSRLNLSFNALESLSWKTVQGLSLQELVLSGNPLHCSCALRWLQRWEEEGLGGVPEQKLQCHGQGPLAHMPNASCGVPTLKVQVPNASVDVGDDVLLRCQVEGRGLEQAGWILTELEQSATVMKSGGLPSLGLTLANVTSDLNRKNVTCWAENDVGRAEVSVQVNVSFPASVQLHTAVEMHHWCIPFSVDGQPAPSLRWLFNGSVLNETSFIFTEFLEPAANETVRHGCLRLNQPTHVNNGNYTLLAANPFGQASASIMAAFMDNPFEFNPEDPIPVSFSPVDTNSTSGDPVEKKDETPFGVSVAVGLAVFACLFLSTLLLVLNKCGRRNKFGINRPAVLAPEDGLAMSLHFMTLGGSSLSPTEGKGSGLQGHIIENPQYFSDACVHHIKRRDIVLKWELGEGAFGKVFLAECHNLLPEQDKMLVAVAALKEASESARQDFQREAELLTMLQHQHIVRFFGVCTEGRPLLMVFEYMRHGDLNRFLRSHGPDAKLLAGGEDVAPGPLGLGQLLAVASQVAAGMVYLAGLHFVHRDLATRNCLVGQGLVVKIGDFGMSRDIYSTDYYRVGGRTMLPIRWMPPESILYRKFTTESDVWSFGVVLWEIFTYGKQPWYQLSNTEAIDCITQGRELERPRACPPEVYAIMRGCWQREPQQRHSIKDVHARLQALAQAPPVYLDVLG
T1 sequence (P01139 122-239 partner limits assumed): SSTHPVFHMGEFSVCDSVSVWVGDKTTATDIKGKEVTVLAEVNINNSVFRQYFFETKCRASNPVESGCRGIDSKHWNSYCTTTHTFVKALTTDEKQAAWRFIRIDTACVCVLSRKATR

With “KRWNSCKQNKQGANSRPVNQTPPPEGEKL (c29- Fragment of p75ICD) [29 amino acid peptide of the p75NTR juxtamembrane Chopper domain; delivered to cells linked to PTD4 or disulfide-linked carrier]” the “increase in pAkt” value (pErk1/2 and pAkt; [1]) was 2 fold, the “increase in pErk1/2” value (pErk1/2 and pAkt; [1]) was 2 fold and the pAkt signalling (pErk1/2 and pAkt; absence of NGF) was “no effect”. For the same sequence, the pErk1/2 signalling (pErk1/2 and pAkt; absence of NGF) was “no effect”, the “pull down of TrkA” value (TrkA) was “able to pull down TrkA” and the “% of cell population with FITC above background” value (TrkAK538A; [2]) was 112.2 ± 5.3%. The “Maximal fluorescence per cell of the population” value (TrkAK538A; [2]) was 128.0 ± 11.7%, the “Mean fluorescence per FITC-positive cell” value (TrkAK538A; [2]) was 125.0 ± 12.1% and the Median population fluorescence (TrkAK538A; [2]) was 140.5 ± 21.3%. For the same sequence, the “half time of NGF-FITC binding” value (TrkAK538A; 26 nM NGF-FITC, cells pre-treated with c29, average of 3 experiments) was 3.6 min, the “faster association rate than untreated cells” value (TrkAK538A; Hill-Slope association curve fit) was about 3 fold and the “total number of fluorescent cells, median, mean and maximal fluorescence” value (TrkAK538A; compared to control TrkAK538A-transfected cells) was “significantly increased”. The “mean fluorescence of the population following receptor saturation, higher than untreated” value (TrkAK538A; ~20 minutes after NGF addition) was “at least 20%” and the “fluorescence of nontransfected cells incubated with peptide and NGF-FITC” value (HEK293 cells) was “only background levels of fluorescence”.

Reference: US20150344535A1, “NEUROTROPHIN-TYROSINE KINASE RECEPTOR SIGNALING” (THE UNIVERSITY OF QUEENSLAND, priority 2012, published 2015)
